Source: patent publication US20090099029

T1: Bovine, dephosphorylated, Myelin Basic Protein (MBP), P02687
T1 chain: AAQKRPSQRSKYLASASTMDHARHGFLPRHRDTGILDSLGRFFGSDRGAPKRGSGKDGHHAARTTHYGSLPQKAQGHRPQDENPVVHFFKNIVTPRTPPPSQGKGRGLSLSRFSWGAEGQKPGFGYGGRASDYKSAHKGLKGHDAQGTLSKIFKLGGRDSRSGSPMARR


Biological target: T1, Bovine, dephosphorylated, Myelin Basic …

Row | Protein | MBP Kinase Activity
1 | EPHA5 (protein) SGSCCECGCGRASSLCAVAHPSLIWRCGYSKAKQDPEEEKMHFHNGHIKLPGVRTYIDPHTYEDPNQAVHEFAKEIEASCITIERVIGAGEFGEVCSGRLKLPGKRELPVAIKTLKVGYTEKQRRDFLGEASIMGQFDHPNIIHLEGVVTKSKPVMIVTEYMENGSLDTFLKKNDGQFTVIQLVGMLRGISAGMKYLSDMGYVHRDLAARNILINSNLVCKVSDFGLSRVLEDDPEAAYTTRGGKIPIRWTAPEAIAFRKFTSASDVWSYGIVMWEVVSYGERPYWEMTNQDVIKAVEEGYRLPSPMDCPAALYQLMLDCWQKERNSRPKFDEIVNMLDKLIRNPSSLKTLVNASCRVSNLLAEHSPLGSGAYRSVGEWLEAIKMGRYTEIFMENGYSSMDAVAQVTLEDLRRLGVTLVGHQKKIMNSLQEMKVQLVNGMVPL | Negative
2 | IRAK4 (protein) MNKPITPSTYVRCLNVGLIRKLSDFIDPQEGWKKLAVAIKKPSGDDRYNQFHIRRFEALLQTGKSPTSELLFDWGTTNCTVGDLVDLLIQNEFFAPASLLLPDAVPKTANTLPSKEAITVQQKQMPFCDKDRTLMTPVQNLEQSYMPPDSSSPENKSLEVSDTRFHSFSFYELKNVTNNFDERPISVGGNKMGEGGFGVVYKGYVNNTTVAVKKLAAMVDITTEELKQQFDQEIKVMAKCQHENLVELLGFSSDGDDLCLVYVYMPNGSLLDRLSCLDGTPPLSWHMRCKIAQGAANGINFLHENHHIHRDIKSANILLDEAFTAKISDFGLARASEKFAQTVMTSRIVGTTAYMAPEALRGEITPKSDIYSFGVVLLEIITGLPAVDEHREPQLLLDIKEEIEDEEKTIEDYIDKKMNDADSTSVEAMYSVASQCLHEKKNKRPDIKKVQQLLQEMTAS | Strong
